Test results taken from PMC8284666, “Biochemical characterization of protease activity of Nsp3 from SARS-CoV-2 and its inhibition by nanobodies” (PLoS ONE, 2021).

B1: NbSL19, displayed on yeast (VHH)
VHH: QVQLQESGGGLVQAGGSLRLSCAASGSIFFQAYMGWYRQAPGKERELVAGIDAGTTTYYADSVKGRFTISRDNAKNTVYLQMNSLKPEDTAVYYCAAEYFWNYNPYRGTNSTHPYWGQGTQVTVSS
B2: NbSL17, displayed on yeast (VHH)
VHH: QVQLQESGGGLVQAGGSLRLSCAASGSISDSTRMGWYRQAPGKERELVATITYGSTTYYADSVKGRFTISRDNAKNTVYLQMNSLKPEDTAVYYCAAFDENVYVYRPYHYYWGQGTQVTVSS

Target: T1, Biotinylated AVI-PLpro wild type (SARS-CoV-2 Nsp3 743-1072) (SARS-CoV-2, Wuhan-Hu-1 (MN908947.3), UniProt P0DTD1, biotin (BirA biotinylation of the Avi tag))
T1 construct: also called biotinylated PLpro; WT PLpro^CoV-2
Test: flow cytometry on cells
Details: one partner purified

Row | Binder | binding result
1 | B1 | binds
2 | B2 | binds
